Measurements published in patent publication US20220288193A1.

Tests used:
[1] = target: antigen X (known antigen used as control in the ELISA of Table 1); experiment: indirect ELISA, positive control: antigen X coated, anti-X-IgY applied, row B
[2] = target: antigen X (known antigen used as control in the ELISA of Table 1); experiment: indirect ELISA, positive control: antigen X coated, anti-X-IgY applied, row A

In the case of “anti-X-IgY (control IgY against antigen X) (antibody)”, the OD [1] is reported as 1.43 OD and the OD [2] is reported as 1.33 OD.
